Experimental data as given in patent publication US20230034906A1 (TRINOMAB BIOTECH, published 2023).

Tests used:
Assay in all cases: indirect ELISA, antibody titrated on gB glycoprotein mutant
[1] = target: T1, gB_Towne protein with N447 mutated into glutamine (human cytomegalovirus, strain Towne, UniProt F5HB53 25-700)
T1 chain: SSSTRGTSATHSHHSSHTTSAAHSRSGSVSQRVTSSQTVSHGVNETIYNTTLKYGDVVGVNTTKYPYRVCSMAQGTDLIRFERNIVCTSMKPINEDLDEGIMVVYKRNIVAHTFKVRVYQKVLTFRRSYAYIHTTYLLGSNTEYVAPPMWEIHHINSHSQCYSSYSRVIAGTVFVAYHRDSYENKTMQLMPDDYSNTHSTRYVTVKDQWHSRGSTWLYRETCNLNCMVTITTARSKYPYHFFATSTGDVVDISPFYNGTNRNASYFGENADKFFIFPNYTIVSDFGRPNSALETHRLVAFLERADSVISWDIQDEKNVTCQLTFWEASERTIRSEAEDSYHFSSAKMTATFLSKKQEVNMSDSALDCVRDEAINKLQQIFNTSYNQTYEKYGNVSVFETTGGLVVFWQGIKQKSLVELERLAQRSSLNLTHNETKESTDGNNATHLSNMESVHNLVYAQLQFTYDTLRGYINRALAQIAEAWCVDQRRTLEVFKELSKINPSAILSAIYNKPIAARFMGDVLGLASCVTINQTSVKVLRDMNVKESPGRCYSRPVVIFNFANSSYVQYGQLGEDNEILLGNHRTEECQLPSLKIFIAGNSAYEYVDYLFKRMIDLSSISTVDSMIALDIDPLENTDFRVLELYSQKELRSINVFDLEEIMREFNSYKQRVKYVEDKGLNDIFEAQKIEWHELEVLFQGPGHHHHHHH

[2] = target: T2, gB_Towne protein with N341 mutated into glutamine (human cytomegalovirus, strain Towne, UniProt F5HB53 25-700)
T2 chain: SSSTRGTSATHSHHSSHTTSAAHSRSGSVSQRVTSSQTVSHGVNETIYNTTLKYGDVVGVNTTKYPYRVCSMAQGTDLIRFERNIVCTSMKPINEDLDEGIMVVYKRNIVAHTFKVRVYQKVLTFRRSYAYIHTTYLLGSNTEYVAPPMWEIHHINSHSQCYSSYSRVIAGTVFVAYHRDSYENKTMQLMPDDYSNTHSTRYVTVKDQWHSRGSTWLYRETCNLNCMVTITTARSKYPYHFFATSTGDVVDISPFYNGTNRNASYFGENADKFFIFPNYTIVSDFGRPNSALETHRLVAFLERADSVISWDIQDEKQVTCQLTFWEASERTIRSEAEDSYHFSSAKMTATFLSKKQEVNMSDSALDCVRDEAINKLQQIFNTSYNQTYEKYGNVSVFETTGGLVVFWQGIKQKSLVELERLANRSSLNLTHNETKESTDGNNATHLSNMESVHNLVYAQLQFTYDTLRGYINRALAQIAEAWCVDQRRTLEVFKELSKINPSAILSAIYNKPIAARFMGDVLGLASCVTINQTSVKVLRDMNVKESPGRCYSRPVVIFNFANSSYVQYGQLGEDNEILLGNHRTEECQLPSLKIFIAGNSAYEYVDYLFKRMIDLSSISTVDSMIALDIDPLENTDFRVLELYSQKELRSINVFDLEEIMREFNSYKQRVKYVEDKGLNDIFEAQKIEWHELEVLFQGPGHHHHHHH

[3] = target: T3, N208Q mutant of gB glycoprotein (gB_Towne protein) (human cytomegalovirus, strain Towne, UniProt F5HB53 25-700)
T3 construct: also called gB glycoprotein N208Q mutant
T3 chain: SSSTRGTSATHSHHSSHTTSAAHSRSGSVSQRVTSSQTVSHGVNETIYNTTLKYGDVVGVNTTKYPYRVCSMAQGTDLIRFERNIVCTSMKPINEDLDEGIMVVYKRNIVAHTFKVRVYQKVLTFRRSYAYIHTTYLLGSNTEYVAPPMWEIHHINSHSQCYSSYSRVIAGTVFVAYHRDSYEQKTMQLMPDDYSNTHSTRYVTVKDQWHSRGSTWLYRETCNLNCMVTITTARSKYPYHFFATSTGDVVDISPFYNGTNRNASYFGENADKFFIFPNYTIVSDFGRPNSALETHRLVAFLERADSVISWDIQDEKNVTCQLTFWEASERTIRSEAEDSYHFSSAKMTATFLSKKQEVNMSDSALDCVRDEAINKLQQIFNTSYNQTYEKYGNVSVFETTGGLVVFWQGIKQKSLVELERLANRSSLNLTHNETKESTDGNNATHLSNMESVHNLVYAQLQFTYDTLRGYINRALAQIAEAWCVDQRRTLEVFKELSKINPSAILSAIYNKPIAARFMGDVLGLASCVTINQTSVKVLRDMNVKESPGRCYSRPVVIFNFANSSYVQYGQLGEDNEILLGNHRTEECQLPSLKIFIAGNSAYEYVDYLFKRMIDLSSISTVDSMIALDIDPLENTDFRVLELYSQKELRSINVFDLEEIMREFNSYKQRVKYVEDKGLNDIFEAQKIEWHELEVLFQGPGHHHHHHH

[4] = target: T4, gB_Towne protein with N456 mutated into glutamine (human cytomegalovirus, strain Towne, UniProt F5HB53 25-700)
T4 chain: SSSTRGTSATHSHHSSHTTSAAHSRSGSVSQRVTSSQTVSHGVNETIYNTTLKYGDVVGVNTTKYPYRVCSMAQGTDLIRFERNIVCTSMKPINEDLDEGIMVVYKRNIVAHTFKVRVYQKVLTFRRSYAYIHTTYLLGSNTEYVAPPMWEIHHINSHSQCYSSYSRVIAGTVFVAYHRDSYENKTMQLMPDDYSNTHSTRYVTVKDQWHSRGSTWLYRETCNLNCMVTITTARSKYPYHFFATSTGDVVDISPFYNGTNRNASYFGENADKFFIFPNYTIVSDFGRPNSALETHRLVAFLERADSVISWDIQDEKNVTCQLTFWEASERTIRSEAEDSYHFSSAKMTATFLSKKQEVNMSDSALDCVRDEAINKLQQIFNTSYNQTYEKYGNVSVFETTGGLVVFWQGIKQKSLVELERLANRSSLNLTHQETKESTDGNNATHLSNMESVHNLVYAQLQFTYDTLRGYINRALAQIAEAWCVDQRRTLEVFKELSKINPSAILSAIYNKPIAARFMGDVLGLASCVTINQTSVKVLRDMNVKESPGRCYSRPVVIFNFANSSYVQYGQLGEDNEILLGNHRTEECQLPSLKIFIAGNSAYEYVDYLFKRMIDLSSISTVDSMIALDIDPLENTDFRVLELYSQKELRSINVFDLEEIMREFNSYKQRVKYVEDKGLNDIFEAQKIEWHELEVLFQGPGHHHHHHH

Measured: binding result

B1: TRN1019 (antibody, V domains shown)
VH: QVQLVQSGAEVKKPGESLKISCKGSGYTFTNYWIGWVRQMPGAGLEWMAIIFPRDSYSAYSPSFQGRVTISVDKSISTAYLHWSSLEASDTAVYYCAIYNDLRSGNSWGQGTPLIVSS
VL: DIQMTQSPSSLSASVGDRVTITCRASQSITKYLNWYQQKPGRAPKLLIHTTSTLQSGVPSRFSGSGSGTDFTLTISSLQLEDFGTYYCQQSFSTLWTFGQGTKLDIKR
notes: Fully human antibody; kappa light chain
binds: all assays above
